System: T1, SpuFz1 (FZID16) (Spizellomyces punctatus)
T1 sequence: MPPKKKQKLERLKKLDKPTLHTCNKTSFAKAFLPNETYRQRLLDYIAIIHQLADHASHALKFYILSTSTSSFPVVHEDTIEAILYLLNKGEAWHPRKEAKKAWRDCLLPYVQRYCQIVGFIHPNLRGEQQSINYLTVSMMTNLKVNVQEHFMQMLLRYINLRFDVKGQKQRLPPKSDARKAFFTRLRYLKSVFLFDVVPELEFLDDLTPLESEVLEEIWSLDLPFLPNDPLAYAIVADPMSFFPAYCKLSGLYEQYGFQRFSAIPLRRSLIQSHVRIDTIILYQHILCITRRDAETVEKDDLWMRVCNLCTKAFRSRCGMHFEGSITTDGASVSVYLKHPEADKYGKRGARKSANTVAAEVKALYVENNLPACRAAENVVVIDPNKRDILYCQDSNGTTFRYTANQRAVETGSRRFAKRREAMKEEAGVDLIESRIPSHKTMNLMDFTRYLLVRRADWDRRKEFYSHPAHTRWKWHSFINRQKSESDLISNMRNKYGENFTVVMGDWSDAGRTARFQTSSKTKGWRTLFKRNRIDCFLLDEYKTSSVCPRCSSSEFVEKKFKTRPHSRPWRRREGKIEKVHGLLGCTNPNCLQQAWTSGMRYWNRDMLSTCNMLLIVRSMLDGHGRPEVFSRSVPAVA
Test: cell_activity
Conditions: HEK293FT, TAM CATA

GUCCACGGACUGCUGGGUUGUACCAACCCUAACUGUUUGCAGCAAGCCUGGACAUCGGGAAUGCGCUACUGGAAUCGAGAUAUGCUGUCAACCUGCAACAUGCUAUUGAUUGUGAGAUCAAUGUUGGAUGGACACGGUAGACCAGAAGUGUUCAGCAGGAGUGUUCCAGCCGUAGCGUAGAACGUAGAUUGGUUAGAUUAGGUUUUCCGAGCCGGUUGUCGCGCGGUUCAAUCCCUGGUGCGGGUGCUAGUGCCAAUACCCACCGGCUCCGCACUAGCAUUCCUUAACACAUCACU / GCATTCCTTAACACATCACT / AGTGATGTGTTAAGGAATGC
activity (gID7, longest initial scaffold): 0.78 % indel

GUUUUCCGAGCCGGUUGUCGCGCGGUUCAAUCCCUGGUGCGGGUGCUAGUGCCAAUACCCACCGGCUCCGCACUAGCAUUCCUUAACACAUCACU / GCATTCCTTAACACATCACT / AGTGATGTGTTAAGGAATGC
activity (gID7, minimal omegaRNA): 0.17 % indel
